Results taken from paper PMC12685370, “Loop-mediated regulation and base flipping drive RNA cleavage by human mitochondrial PNPase” (Nucleic Acids Research, 2025).

What was measured:
[1] = target: T1, hPNPase (human polynucleotide phosphorylase), hPNPase-TS (Homo sapiens, UniProt Q8TCS8); assay: cryo-EM structure; type: binding; details: 2 mM NaH2PO4, 2 mM MgCl2, pH 8.0; active site of PH2 domain (S482-484, H450, R446), no RNA; co-substrate of phosphorolysis; also in 9NO0 with PT5 RNA
T1 construct: gene PNPT1; residues 46-783, mitochondrial targeting signal removed, C-terminal Twin-Strep-tag kept, expressed in MEXi-293E cells, homotrimer
T1 sequence (Q8TCS8 46-783): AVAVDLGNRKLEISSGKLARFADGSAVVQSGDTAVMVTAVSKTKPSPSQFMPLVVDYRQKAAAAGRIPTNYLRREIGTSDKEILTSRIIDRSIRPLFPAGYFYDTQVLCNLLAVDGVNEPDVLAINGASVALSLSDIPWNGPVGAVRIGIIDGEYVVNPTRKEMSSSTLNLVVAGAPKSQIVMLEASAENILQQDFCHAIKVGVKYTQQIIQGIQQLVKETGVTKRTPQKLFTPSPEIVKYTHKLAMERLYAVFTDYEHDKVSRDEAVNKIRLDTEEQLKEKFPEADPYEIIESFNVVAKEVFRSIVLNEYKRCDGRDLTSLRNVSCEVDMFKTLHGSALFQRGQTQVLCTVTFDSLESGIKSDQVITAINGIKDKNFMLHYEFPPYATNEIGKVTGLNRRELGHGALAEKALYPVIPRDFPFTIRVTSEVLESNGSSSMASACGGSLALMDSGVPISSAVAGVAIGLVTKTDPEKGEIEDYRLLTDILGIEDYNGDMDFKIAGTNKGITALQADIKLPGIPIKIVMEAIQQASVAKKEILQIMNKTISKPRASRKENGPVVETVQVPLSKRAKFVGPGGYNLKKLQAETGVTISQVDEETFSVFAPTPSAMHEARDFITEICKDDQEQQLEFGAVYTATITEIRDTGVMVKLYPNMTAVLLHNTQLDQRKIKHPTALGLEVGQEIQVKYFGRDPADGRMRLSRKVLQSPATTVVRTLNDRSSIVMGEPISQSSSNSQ

[2] = target: T2, hPNPase (human mitochondrial polynucleotide phosphorylase) (Homo sapiens, UniProt Q8TCS8 46-783); assay: cryo-EM structure; sulfate in place of phosphate, Mg2+; pre-catalytic state, 2.2 A, 6 nt modelled; Protein SEC buffer: 20 mM HEPES-NaOH pH 8.0, 150 mM NaCl, 1 mM MgCl2, 1 mM DTT, 1% glycerol; competition as in RNA degradation assay (conditions not in material); sulfate 2 mM in the assay replacing phosphate; details: protein: recombinant; tags: C-terminal Twin-Strep-tag; chain copies: 3; label: 5'-FAM; single strand
T2 sequence: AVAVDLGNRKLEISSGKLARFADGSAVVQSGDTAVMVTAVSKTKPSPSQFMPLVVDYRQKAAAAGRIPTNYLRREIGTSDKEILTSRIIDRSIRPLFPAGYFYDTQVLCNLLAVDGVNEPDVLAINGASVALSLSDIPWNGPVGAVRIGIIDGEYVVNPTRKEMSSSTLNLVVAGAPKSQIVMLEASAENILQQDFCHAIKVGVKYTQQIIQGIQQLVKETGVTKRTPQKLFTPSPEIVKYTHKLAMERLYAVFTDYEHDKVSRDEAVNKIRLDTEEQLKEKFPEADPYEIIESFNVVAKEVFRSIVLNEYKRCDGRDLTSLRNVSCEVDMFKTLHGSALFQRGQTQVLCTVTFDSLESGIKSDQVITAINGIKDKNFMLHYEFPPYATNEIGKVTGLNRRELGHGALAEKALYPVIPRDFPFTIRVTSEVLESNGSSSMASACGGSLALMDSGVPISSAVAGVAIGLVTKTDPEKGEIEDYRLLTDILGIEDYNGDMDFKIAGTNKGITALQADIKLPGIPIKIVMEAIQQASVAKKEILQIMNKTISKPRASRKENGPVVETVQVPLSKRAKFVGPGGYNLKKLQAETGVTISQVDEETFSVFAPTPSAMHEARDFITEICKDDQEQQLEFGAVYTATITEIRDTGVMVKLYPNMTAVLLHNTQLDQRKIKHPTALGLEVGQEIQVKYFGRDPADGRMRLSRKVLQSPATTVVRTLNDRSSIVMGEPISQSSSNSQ

[3] = target: the molecule itself; assay: cryo-EM structure; single-particle cryo-EM of 1.5 uM hPNPase-TS in RNA degradation buffer (10 mM HEPES pH 8.0, 50 mM NaCl, 2 mM MgCl2, 2 mM DTT, 2 mM NaH2PO4); apo (with Pi), RNA loading state (PT5 RNA) and pre-catalytic state (10 mM Na2SO4, 0.1 mM NaH2PO4, RNA); refined in C1

Molecule: O=P(O)(O)O [Pi, phosphate]
- cryo-EM structure [1]: The phosphate ion is present in each protomer and coordinated by S482-484, H450, and R446

B1: FAM_PNP_RNA_long (ssRNA)
RNA: CACAACACACACCACACACACAUAAAACAAAACAGCUACGCCAUCCUCCCCCCAAUCUA
- binding result [2]: binds

B2: human polynucleotide phosphorylase (hPNPase), amino acids 46-783, with C-terminal Twin-Strep-tag (enzyme, UniProt Q8TCS8 46-783, looked up)
chain: AVAVDLGNRKLEISSGKLARFADGSAVVQSGDTAVMVTAVSKTKPSPSQFMPLVVDYRQKAAAAGRIPTNYLRREIGTSDKEILTSRIIDRSIRPLFPAGYFYDTQVLCNLLAVDGVNEPDVLAINGASVALSLSDIPWNGPVGAVRIGIIDGEYVVNPTRKEMSSSTLNLVVAGAPKSQIVMLEASAENILQQDFCHAIKVGVKYTQQIIQGIQQLVKETGVTKRTPQKLFTPSPEIVKYTHKLAMERLYAVFTDYEHDKVSRDEAVNKIRLDTEEQLKEKFPEADPYEIIESFNVVAKEVFRSIVLNEYKRCDGRDLTSLRNVSCEVDMFKTLHGSALFQRGQTQVLCTVTFDSLESGIKSDQVITAINGIKDKNFMLHYEFPPYATNEIGKVTGLNRRELGHGALAEKALYPVIPRDFPFTIRVTSEVLESNGSSSMASACGGSLALMDSGVPISSAVAGVAIGLVTKTDPEKGEIEDYRLLTDILGIEDYNGDMDFKIAGTNKGITALQADIKLPGIPIKIVMEAIQQASVAKKEILQIMNKTISKPRASRKENGPVVETVQVPLSKRAKFVGPGGYNLKKLQAETGVTISQVDEETFSVFAPTPSAMHEARDFITEICKDDQEQQLEFGAVYTATITEIRDTGVMVKLYPNMTAVLLHNTQLDQRKIKHPTALGLEVGQEIQVKYFGRDPADGRMRLSRKVLQSPATTVVRTLNDRSSIVMGEPISQSSSNSQ
notes: human polynucleotide phosphorylase (hPNPase), amino acids 46-783, without the N-terminal mitochondrial targeting signal; gene codon optimized for human cell lines; S1 domain not modelled in the structures; Cloned into the vector pDSG103 (IBA); Homotrimer in all cryo-EM reconstructions; also called hPNPase-TS; human mitochondrial PNPase; source: MEXi-293E cells, transfected, purified …
- stoichiometry N [3]: 3
